Source: publication PMC7998035

Columns and labels:
Experiment in all cases: ELISA; ECM protein coated on the plate (100 nM in PBS, 1 h, 37 °C), blocked with 1% BSA in PBS-T; IL-1Ra or PDGF-BB variants at 0 to 100 nM in PBS-T with 0.1% BSA, 1 h, room temperature; bound protein detected with biotinylated antibodies (DuoSet); specific binding fitted with a one site-specific binding model; means of 3 independent experiments
[1] = biological target: human plasma fibronectin (human)
[2] = biological target: human vitronectin (human) (UniProt P04004)
Sequence of human vitronectin (human) (P04004 20-478): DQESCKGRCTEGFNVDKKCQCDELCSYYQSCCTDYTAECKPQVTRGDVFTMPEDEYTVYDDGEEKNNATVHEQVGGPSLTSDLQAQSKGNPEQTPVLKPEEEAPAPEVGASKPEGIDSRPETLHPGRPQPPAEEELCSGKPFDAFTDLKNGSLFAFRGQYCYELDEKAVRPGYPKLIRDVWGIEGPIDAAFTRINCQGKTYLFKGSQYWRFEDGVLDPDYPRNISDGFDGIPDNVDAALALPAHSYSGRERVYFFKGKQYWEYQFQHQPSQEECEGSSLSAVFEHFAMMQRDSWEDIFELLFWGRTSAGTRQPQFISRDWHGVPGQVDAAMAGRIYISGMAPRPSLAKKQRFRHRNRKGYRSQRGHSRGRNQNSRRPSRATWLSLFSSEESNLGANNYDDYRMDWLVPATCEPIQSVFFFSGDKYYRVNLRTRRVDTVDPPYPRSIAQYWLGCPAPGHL

human tenascin C (human) = human tenascin C (human) (UniProt P24821)
Sequence of human tenascin C (human) (P24821 23-2201): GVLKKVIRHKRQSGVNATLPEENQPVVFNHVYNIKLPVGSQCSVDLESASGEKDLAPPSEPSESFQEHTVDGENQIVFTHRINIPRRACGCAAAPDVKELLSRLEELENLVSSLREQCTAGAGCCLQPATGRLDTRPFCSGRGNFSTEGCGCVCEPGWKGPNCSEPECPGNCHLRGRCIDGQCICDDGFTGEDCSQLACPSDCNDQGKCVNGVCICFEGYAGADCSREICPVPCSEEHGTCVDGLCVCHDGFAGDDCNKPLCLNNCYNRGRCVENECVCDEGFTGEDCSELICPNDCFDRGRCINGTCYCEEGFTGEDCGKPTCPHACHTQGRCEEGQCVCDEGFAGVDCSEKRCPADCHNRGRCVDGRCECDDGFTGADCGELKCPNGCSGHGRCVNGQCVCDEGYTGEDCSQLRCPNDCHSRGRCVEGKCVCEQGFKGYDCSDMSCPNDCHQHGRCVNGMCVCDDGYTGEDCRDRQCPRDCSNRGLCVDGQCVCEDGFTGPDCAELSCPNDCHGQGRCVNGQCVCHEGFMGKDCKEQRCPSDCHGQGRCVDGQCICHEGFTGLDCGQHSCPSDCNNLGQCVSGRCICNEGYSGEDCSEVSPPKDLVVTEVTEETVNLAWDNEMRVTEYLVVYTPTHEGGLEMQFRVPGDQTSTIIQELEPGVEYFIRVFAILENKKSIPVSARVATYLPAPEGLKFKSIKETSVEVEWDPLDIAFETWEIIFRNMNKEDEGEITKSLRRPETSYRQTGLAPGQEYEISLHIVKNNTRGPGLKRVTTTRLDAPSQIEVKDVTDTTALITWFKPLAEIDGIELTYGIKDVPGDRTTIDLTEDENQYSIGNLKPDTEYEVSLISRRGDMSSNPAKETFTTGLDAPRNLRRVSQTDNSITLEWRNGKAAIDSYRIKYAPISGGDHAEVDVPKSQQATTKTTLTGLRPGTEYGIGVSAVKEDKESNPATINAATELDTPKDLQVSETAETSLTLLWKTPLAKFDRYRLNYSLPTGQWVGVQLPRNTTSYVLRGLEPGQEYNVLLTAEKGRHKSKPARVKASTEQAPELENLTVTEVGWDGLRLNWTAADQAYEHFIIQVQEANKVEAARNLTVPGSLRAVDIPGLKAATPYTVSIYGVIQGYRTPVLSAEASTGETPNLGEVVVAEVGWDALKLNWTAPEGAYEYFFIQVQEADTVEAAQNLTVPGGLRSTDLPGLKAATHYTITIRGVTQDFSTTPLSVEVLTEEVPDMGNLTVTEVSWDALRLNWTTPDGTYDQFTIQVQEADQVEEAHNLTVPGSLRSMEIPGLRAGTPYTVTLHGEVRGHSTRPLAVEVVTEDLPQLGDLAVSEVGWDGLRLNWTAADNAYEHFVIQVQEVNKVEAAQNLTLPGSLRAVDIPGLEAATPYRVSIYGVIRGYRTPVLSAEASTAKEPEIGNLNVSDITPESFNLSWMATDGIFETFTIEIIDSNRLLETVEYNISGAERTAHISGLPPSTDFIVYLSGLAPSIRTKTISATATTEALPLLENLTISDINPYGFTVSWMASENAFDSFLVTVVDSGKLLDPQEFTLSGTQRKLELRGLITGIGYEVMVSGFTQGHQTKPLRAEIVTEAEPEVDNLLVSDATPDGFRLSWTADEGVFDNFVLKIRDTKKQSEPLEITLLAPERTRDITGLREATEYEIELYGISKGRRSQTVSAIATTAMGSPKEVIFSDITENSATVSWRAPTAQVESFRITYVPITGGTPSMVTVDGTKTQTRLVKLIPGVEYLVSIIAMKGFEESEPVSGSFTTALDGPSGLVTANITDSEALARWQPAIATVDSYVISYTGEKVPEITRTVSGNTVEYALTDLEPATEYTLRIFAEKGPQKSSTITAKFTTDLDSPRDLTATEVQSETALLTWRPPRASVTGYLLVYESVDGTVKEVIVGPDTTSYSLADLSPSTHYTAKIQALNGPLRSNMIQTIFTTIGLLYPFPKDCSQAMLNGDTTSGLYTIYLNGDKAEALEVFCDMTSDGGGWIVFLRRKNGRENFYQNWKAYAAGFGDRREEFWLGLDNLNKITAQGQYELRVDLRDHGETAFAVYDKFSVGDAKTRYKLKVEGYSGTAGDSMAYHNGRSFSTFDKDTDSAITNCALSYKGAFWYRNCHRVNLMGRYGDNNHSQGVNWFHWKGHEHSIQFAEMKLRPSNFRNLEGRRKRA

Sequence of human plasma fibronectin (human) (P02751 other isoform, or with tags, fused parts or gaps): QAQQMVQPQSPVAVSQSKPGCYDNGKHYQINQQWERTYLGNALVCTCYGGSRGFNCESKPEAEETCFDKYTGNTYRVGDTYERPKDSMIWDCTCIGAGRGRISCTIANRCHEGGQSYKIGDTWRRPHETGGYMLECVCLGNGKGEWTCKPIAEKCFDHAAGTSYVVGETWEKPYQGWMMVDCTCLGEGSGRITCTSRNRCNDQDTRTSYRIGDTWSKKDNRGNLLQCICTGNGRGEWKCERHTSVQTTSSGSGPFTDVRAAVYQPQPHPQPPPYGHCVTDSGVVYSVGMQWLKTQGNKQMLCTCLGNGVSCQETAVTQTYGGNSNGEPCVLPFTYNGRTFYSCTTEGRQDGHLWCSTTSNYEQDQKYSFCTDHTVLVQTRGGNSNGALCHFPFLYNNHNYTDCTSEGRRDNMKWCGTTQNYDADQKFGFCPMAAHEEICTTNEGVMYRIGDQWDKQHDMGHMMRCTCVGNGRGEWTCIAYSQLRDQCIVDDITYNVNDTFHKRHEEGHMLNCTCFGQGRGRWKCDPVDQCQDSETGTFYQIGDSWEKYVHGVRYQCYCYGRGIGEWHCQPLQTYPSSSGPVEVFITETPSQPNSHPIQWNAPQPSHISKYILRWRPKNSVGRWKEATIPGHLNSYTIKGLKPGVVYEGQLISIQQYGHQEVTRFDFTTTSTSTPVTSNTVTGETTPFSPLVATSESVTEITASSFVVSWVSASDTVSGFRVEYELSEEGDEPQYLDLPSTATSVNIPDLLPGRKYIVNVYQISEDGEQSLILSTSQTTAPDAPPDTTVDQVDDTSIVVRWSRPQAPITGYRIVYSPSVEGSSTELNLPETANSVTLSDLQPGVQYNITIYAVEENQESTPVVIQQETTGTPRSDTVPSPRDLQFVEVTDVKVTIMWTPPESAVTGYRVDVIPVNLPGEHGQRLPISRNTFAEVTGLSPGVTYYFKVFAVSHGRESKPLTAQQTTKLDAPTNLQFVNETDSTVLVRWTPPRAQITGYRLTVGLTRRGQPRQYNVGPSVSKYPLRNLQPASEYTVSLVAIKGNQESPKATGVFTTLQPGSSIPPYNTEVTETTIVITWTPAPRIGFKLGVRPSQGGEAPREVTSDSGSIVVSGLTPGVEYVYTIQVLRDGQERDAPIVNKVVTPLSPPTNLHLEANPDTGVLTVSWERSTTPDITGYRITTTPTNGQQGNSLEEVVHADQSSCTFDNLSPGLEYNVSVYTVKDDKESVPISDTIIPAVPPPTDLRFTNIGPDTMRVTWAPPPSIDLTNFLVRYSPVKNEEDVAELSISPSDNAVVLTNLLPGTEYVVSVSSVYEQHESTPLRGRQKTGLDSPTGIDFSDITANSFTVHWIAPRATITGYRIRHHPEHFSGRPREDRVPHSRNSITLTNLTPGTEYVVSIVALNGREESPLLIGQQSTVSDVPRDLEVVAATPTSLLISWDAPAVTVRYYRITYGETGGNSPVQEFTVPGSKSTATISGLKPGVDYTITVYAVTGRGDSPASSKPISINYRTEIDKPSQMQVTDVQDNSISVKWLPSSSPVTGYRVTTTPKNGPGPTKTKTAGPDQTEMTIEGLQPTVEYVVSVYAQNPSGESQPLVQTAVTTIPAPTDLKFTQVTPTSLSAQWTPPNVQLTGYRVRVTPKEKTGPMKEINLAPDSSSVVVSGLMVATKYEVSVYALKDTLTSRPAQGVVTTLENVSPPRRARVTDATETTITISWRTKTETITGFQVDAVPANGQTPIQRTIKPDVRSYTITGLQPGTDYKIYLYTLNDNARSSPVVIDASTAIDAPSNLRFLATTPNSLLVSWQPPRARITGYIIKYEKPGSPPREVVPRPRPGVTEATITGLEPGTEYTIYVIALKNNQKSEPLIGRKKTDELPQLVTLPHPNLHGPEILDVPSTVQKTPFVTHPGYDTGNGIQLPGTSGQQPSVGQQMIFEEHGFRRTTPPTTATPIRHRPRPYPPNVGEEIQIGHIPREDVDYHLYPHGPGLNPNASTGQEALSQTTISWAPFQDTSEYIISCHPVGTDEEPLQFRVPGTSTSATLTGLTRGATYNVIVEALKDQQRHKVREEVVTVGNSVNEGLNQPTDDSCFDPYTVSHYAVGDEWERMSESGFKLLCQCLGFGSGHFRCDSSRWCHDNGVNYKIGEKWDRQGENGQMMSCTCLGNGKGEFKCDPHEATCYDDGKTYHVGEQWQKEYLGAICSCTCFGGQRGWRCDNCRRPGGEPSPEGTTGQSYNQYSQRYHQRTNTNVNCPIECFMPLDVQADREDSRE

| Kd [1] [µM] | Kd [2] [µM] | Kd (human tenascin C (human)) [µM] | Substance |
| --- | --- | --- | --- |
| 0.0177 |  |  | PDGF-BB/PlGF123-141 (other; other documents disagree on this pair) |
| 0.0219 |  |  | IL-1Ra/PlGF123-141 (other; other documents disagree on this pair) |
|  | 0.0007 | 0.0203 | IL-1Ra/PlGF123-141 |
|  | 0.0014 | 0.025 | PDGF-BB/PlGF123-141 |
